Results as given in US20240182563A1 (GENOME, published 2024).

Legend:
human CNTN4-10xHis = biological target: T1, human CNTN4-10xHis (human, UniProt Q8IWV2 19-1000); experiment: ELISA, plate coated with CNTN4-10xHis, anti-human Fc-HRP
T1 sequence: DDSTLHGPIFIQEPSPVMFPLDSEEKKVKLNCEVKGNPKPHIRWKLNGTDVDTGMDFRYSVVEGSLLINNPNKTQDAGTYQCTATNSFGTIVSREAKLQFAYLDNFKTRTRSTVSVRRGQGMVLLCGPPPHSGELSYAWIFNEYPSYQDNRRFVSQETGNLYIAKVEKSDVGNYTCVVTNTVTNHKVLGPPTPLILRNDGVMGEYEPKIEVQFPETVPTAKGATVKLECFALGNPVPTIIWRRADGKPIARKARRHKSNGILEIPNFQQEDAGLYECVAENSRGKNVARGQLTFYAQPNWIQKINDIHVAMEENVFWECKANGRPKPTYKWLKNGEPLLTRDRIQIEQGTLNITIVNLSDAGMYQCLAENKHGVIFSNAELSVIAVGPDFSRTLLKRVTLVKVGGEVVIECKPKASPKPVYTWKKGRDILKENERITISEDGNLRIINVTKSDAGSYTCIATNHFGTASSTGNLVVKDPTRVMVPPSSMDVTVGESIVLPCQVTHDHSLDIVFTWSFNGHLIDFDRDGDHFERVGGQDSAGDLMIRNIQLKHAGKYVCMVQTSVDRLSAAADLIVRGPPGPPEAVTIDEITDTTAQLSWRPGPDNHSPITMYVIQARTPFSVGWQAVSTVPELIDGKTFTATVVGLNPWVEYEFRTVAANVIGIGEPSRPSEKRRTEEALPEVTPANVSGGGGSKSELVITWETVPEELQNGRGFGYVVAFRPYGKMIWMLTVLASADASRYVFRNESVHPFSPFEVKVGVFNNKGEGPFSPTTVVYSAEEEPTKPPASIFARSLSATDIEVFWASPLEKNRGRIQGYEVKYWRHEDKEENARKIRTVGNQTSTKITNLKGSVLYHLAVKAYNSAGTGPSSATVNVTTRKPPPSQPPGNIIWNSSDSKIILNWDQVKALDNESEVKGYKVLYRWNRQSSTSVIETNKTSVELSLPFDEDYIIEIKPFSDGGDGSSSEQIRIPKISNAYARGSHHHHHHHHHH
Method: (§1) The LAH2, L1H2, and L2H2 antibodies prepared in Example 3.1 were subjected to an ELISA test together with A-01. An ELISA plate was coated with 200 ng of antigens (human CNTN4-10xHis or mouse CNTN4-10xHis). For antibody binding, antibodies were serially diluted from a maximum of 1 μM to 0.0001 nM, thereby binding to the antigen. Anti-human Fc-HRP was used as a secondary antibody for antibody detection. Color was developed using ABTS, which is a color developing reagent, and the absorbance at 405 nm was measured.

mouse CNTN4-10xHis = biological target: T2, mouse CNTN4-10xHis (mouse, UniProt Q69Z26 19-1000); experiment: as above
T2 sequence: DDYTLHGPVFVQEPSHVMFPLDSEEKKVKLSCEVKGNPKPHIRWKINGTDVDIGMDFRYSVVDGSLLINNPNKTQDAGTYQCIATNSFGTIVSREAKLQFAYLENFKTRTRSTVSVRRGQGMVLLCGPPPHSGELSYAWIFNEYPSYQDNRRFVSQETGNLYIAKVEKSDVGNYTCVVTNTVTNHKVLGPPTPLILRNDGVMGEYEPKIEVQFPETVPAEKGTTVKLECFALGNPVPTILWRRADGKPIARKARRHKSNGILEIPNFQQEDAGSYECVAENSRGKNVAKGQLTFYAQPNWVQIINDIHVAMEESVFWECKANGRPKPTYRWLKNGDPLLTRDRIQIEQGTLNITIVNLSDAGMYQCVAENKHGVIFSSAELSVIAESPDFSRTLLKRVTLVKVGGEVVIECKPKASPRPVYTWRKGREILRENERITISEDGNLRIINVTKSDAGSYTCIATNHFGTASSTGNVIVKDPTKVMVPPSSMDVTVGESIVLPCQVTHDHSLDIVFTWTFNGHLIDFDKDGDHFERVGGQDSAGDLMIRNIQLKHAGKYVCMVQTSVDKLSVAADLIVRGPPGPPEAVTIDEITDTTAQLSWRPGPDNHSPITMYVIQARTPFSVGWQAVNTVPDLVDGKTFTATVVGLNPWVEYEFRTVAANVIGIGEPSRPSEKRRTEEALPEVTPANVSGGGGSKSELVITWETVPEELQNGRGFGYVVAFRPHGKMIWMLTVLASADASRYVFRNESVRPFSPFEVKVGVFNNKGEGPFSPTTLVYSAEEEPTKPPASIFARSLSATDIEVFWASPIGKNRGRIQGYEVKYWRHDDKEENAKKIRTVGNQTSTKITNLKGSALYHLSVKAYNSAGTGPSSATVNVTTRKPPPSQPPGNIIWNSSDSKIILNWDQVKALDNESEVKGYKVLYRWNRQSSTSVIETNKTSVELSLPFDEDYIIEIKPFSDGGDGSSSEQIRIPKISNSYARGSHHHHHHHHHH
Method: as §1

EC50 (human CNTN4-10xHis): 0.011 nM | EC50 (mouse CNTN4-10xHis): 0.011 nM
B1: anti-CNTN4 129 chimeric IgG4-S228P (antibody, V domains shown)
VH: AVTLDESEGGLQTPGGALSLVCKASGFTFSSFNMFWVRQAPGKGLEYVAEISGGGGSTWYAPAVKGRATISRDNGQSTVRLQLNNLRAEDTGTYYCAKSADTWSYGAATIDAWGHGTEVIVSS
VL: ALTQPSSVSANLGETVKITCSGSSGSYGWYQQKSPGSAPVTLIYDNTNRPSDIPSRFSGSGSGSTGTLTITGVRAEDEAVYYCGGYDGSTDVFGAGTTLTVL
notes: chicken-human chimeric IgG4-S228P made from S129, kappa light chain constant region (Kappa select); also called A-01; LAHA
